The numbers were not newly measured in article PMC3968163, which cites them from elsewhere.

pKd: −log10 of the molar value.

For this series, the target named is p53 TAD (Homo sapiens) (UniProt P04637). The series can be described thus: ITC.
Sequence of p53 TAD (Homo sapiens) (P04637 20-73): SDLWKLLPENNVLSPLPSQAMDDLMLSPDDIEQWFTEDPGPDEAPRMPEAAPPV

Sequence of Tfb1 PH (P32776 1-115): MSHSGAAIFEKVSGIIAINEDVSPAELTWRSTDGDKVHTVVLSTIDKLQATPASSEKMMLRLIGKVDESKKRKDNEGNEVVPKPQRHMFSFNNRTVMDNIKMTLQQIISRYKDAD

What is called pKd is the Kd on a negative log10 scale, so that one unit is a factor of ten. On to Tfb1 PH (from UniProt P32776), for which the pKd is 6.40.
